Tests used:
[1] = target: PagRBc, PagR homologue (ArsR/SmtB family transcription factor) of emetic B. cereus F4810/72, encoded on pCER270 (Bacillus cereus F4810/72 (emetic reference strain)); experiment: two-hybrid
[2] = tested on: PagRBa (PagR) (Bacillus anthracis Sterne, plasmid pXO1); experiment: EMSA
[3] = tested on: PagR1Bc (Bacillus cereus F4810/72 (AH187), plasmid pCER270); experiment: EMSA
[4] = tested on: PagRBc (Bacillus cereus F4810/72 (AH187), plasmid pCER270); experiment: EMSA

PagRBc, PagR homologue (ArsR/SmtB family transcription factor) of emetic B. cereus F4810/72, encoded on pCER270 (natural protein)
fold of self-interaction (β-galactosidase activity) against the self-interaction of PagR1Bc [1]: 1.75 fold

cesP main promoter (cesPII), 523 bp
Kd [2]: 25 nM | Kd [3]: 150 nM | Kd [4]: 25 nM

Source: paper PMC9570423
